In patent US20190162720A1:

What was measured:
[1] = molecular target: anti-CRP antibody (R&D Systems, Inc., Human C-Reactive protein Antibody, Monoclonal Mouse IgG2B, MAB17071-500); assay: SPR Biacore T200; anti-CRP antibody 100 µg/mL fed over protein A/G (8) held on the first antibody (Example 8)
[2] = molecular target: anti-CRP antibody (R&D Systems, Inc., Human C-Reactive protein Antibody, Monoclonal Mouse IgG2B, MAB17071-500); assay: SPR Biacore T200; anti-CRP antibody 100 µg/mL fed over protein A/G (8) held on anti-mPEG antibody (Example 11)
[3] = molecular target: anti-mPEG monoclonal antibody (Abcam plc., ab51257, Mouse monoclonal, Anti-Polyethylene glycol antibody [PEG-B-47]); assay: SPR Biacore T200; protein A/G (eight domains) 119 µg/mL fed over anti-mPEG antibody on the mPEG chip (Example 11)
[4] = molecular target: anti-biotin monoclonal antibody (Abcam plc., ab36406, Mouse monoclonal); assay: SPR Biacore T200; protein A/G (eight domains) 30 µg/mL fed over anti-biotin monoclonal antibody on the chip (Example 8)
[5] = molecular target: C-Reactive protein (CRP, R&D Systems, Inc., 1707-CR-200, Mouse myeloma cell line) (UniProt P02741); assay: SPR Biacore T200; CRP 1.0 µg/mL fed over antibody held through protein G (Example 6)
Chain of UniProt P02741 (P02741 19-224 limits assumed): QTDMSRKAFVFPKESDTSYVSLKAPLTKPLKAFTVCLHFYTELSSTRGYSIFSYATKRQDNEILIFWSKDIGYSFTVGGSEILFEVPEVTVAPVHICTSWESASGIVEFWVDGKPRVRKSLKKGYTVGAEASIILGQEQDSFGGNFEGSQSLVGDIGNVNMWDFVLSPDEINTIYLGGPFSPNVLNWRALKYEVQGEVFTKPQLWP

[6] = molecular target: C-Reactive protein (CRP, R&D Systems, Inc., 1707-CR-200, Mouse myeloma cell line) (UniProt P02741); assay: SPR Biacore T200; CRP 1.0 µg/mL fed over antibody held through protein A/G (6) (Example 7)
[7] = molecular target: C-Reactive protein (CRP, R&D Systems, Inc., 1707-CR-200, Mouse myeloma cell line) (UniProt P02741); assay: SPR Biacore T200; CRP 1.0 µg/mL fed over antibody held through protein A/G (8) (Example 8)
[8] = molecular target: C-Reactive protein (CRP, R&D Systems, Inc., 1707-CR-200, Mouse myeloma cell line) (UniProt P02741); assay: SPR Biacore T200; CRP 1.0 µg/mL fed over antibody held through protein A/G (6) (Example 9)
[9] = molecular target: C-Reactive protein (CRP, R&D Systems, Inc., 1707-CR-200, Mouse myeloma cell line) (UniProt P02741); assay: SPR Biacore T200; CRP 1.0 µg/mL fed over antibody held through protein A/G (6) (Example 10)
[10] = molecular target: C-Reactive protein (CRP, R&D Systems, Inc., 1707-CR-200, Mouse myeloma cell line) (UniProt P02741); assay: SPR Biacore T200; CRP 1.0 µg/mL fed over antibody held through protein A/G (8) (Example 11)
[11] = molecular target: C-Reactive protein (CRP, R&D Systems, Inc., 1707-CR-200, Mouse myeloma cell line) (UniProt P02741); assay: SPR Biacore T200; CRP 1.0 µg/mL fed over antibody held through protein A/G (6) (Example 12)
[12] = molecular target: C-Reactive protein (CRP, R&D Systems, Inc., 1707-CR-200, Mouse myeloma cell line) (UniProt P02741); assay: SPR Biacore T200; CRP 1.0 µg/mL fed over antibody held through protein A/G (6) (Example 13)
[13] = molecular target: C-Reactive protein (CRP, R&D Systems, Inc., 1707-CR-200, Mouse myeloma cell line) (UniProt P02741); assay: SPR Biacore T200; CRP 1.0 µg/mL fed over antibody held through protein A/G (6) (Example 14)
[14] = molecular target: C-Reactive protein (CRP, R&D Systems, Inc., 1707-CR-200, Mouse myeloma cell line) (UniProt P02741); assay: SPR Biacore T200; CRP 1.0 µg/mL fed over antibody held through protein A/G (6) (Example 15)
[15] = molecular target: C-Reactive protein (CRP, R&D Systems, Inc., 1707-CR-200, Mouse myeloma cell line) (UniProt P02741); assay: SPR Biacore T200; CRP 1.0 µg/mL fed over antibody held through protein A/G (6) (Example 16)
[16] = molecular target: C-Reactive protein (CRP, R&D Systems, Inc., 1707-CR-200, Mouse myeloma cell line) (UniProt P02741); assay: SPR Biacore T200; CRP 1.0 µg/mL fed over antibody held through protein A/G (6) (Example 17)
[17] = molecular target: C-Reactive protein (CRP, R&D Systems, Inc., 1707-CR-200, Mouse myeloma cell line) (UniProt P02741); assay: SPR Biacore T200; CRP 1.0 µg/mL fed over antibody coupled covalently (EDC/s-NHS) to the SAM; corrected with anti-IL6 reference interface (Comparative Example 2)
[18] = molecular target: anti-biotin monoclonal antibody (Abcam plc., ab36406, Mouse monoclonal); assay: SPR Biacore T200; protein G 40 µg/mL fed over anti-biotin monoclonal antibody on the chip (Example 6)
[19] = molecular target: anti-CRP antibody (R&D Systems, Inc., Human C-Reactive protein Antibody, Monoclonal Mouse IgG2B, MAB17071-500); assay: SPR Biacore T200; anti-CRP antibody 100 µg/mL fed over protein G held on the first antibody (Example 6)

Substance: protein A/G (BioVision Incorporated, 6502, Recombinant Protein A/G from E. coli, eight domains)
- Amount of second antibody immobilized [1]: 3460 RU
- Amount of second antibody immobilized [2]: 3210 RU
- amount of the protein A/G immobilized [3]: 820 RU
- amount of the protein A/G immobilized [4]: 868 RU

Substance: anti-CRP antibody (R&D Systems, Inc., Human C-Reactive protein Antibody, Monoclonal Mouse IgG2B, MAB17071-500)
- Amount of antigen bound [5]: 513 RU
- Amount of antigen bound [6]: 422 RU
- Amount of antigen bound [7]: 745 RU
- Amount of antigen bound [8]: 408 RU
- Amount of antigen bound [9]: 663 RU
- Amount of antigen bound [10]: 536 RU
- Amount of antigen bound [11]: 508 RU
- Amount of antigen bound [12]: 560 RU
- Amount of antigen bound [13]: 630 RU
- Amount of antigen bound [14]: 519 RU
- Amount of antigen bound [15]: 514 RU
- Amount of antigen bound [16]: 481 RU
- Amount of antigen bound [17]: 284 RU

Substance: protein G (BioVision Incorporated, 6501, recombinant protein G, three domains)
- amount of the protein G immobilized [18]: 841 RU
- Amount of second antibody immobilized [19]: 2010 RU
